# B1: 2E7: anti-CD70 antibody clone, VH SEQ 7 and VL SEQ 8; tested as scFv and full human IgG1/kappa (antibody, V domains shown)
# VH: QVQLQESGPGLVKPSETLSLTCTVSGGSVSSDYYYWSWIRQPPGKGLEWLGYIYYSGSTNYNPSLKSRVTISVDTSKNQFSLKLRSVTTADTAVYYCARGDGDFLGVCFDYWGQGTLVTVSS
# VL: EIVLTQSPATLSLSPGERATLSCRASQSVSSYLAWYQQKPGQAPRLLIFDASNRATGIPARFSGSGSGTDFTLTISSLEPEDFAVYYCQQRSNWPLTFGGGTKVEIK
# modifications: Synthetic 2E7 VH amino acid sequence; Synthetic 2E7 VL amino acid sequence
# notes: tested as scFv and full human IgG1/kappa
# Tests used:
# Caki-1 cells = assay: Internalization by FACS immune-fluorescence staining, Caki-1; type: cell-based, human
# Experimental: Briefly, 2×10^5 cells were harvested from a tissue culture flask by treatment with 0.25% Trypsin/EDTA and then incubated with 10 μg/ml of the lead antibodies or control antibodies in FACS buffer (1×PBS with 0.1% BSA) for 30 mins at 4° C. The cells were washed at 4° C. to remove unbound antibodies and kept on ice or shifted to 37° C. At the set time points (0 h, 4 h, 24 h), cells were incubated with PE-conjugated anti human Fc (Abcam, Ab98596) for 30 mins at 4° C. and then analyzed by flow cytometry. The internalization ratio was calculated by subtracting the 37° C. MFI from the 4° C. MFI, and then compared with 4° C. MFI.
# (§1) Four cell lines ([…]), Caki-1, Raji, MCF-7) were utilized in the internalization assay. Target (CD70) copy numbers were determined via the QIFIKIT (DAKO, K0078). Briefly, cells were labeled with a primary mouse monoclonal antibody against CD70. Cells, Set-up beads, Calibration beads (from the kit) were then labeled in parallel with a fluorescein-conjugated anti-mouse secondary antibody. The fluorescence is correlated with the number of bound primary antibody molecules on the cells and on the beads. Samples were subsequently analyzed on the flow cytometer and copy number determined based on the calibration curve (Table 11). For internalization assay, 3×10^5 cells were incubated at 4° C. for 30 min with 10 µg/ml 2E7 in FACS buffer (1×PBS containing 0.1% BSA). Cells were washed at 4° C. to remove unbound material and kept on ice or shifted to 37° C. for different lengths of time. At progressive timepoints ([…], 0.5, 1, 2, 3, 4 hr) cells were stained with PE-conjugated anti-human Fc for 30 min at 4° C. and analyzed by flow cytometry. Internalization rate were calculated by subtracting the mean fluorescence intensity (MFI) of cell surface-bound antibody at 37° C. at each time point from the MFI of cell surface-bound antibody at 4° C. at time 0, then divided by the MFI of the cell surface-bound antibody at 4° C. at time 0.
# Raji cells = assay: Internalization time course, Raji; type: cell-based, human; details: up to 4 hr, FIG. 13
# Experimental: as §1
molecule,measurement,setting,value
B1,absolute amount of antibody internalized into cell vs parent antibody 69A7,"Caki-1 cells; Caki-1, based on the cell binding affinity",higher absolute amount of antibody internalized into cell than the parent antibody 69A7
same,"internalization, time course","Caki-1 cells; Caki-1, up to 4 hr, FIG. 13",rapid internalization
same,"internalization, time course",Raji cells,rapid internalization
